Results taken from US6413737.

target: human prothrombin, P00734

| Protein | Ecarin Activity, 48 Hours, +APMA | Ecarin Activity, 48 Hours, -APMA | Ecarin Activity, 120 Hours, +APMA | Ecarin Activity, 120 Hours, -APMA | prothrombin converting activity | conversion of prothrombin to thrombin by immobilized ecarin, Coomassie stained SDS-PAGE |
| --- | --- | --- | --- | --- | --- | --- |
| preproecarin S396, delta IV (pDOEC37) (protein) CSIILGSGNVNDYEVVYPQKVTALPKGAVQQPEQKYEDAMQYEFEVKGEPVVLHLEKNKELFSEDYSETHYSSDDREITTNPSVEDHCYYHGRIQNDAESTASISACNGLKGHFKLRGETYFIEPLKIPDSEAHAVYKYENIENEDEAPKMCGVTQDNWESDEPIKKTLGLIVPPHERKFEKKFIELVVVVDHSMVTKYNNDSTAIRTWIYEMLNTVNEIYLPFNIRVALVGLEFWCNGDLINVTSTADDTLHSFGEWRASDLLNRKRHDHAQLLTNVTLDHSTLGITFVYGMCKSDRSVELILDYSNITFNMAYIIAHEMGHSLGMLHDTKFCTCGAKPCIMFGKESIPPPKEFSSCSYDQYNKYLLKYNPKCILDSPLRKDIASPAVCGNEIWEEGEECDCGSPADCRNPCCDAATCKLKPGAECGNGECCDKCKIRKAGTECRPARDDCDVAEHCTGQSAECPRNEFQR | 0 | 0 | 68 | 34 | Deletion of the Cys-rich domain (positions 491 to 616) or the disintegrin and Cys-rich domains (398-616) abolished all ecarin activity in the presence or absence of APMA | – |
| preproecarin S396, S170, delta IV (pDOEC39) (protein) CSIILGSGNVNDYEVVYPQKVTALPKGAVQQPEQKYEDAMQYEFEVKGEPVVLHLEKNKELFSEDYSETHYSSDDREITTNPSVEDHCYYHGRIQNDAESTASISACNGLKGHFKLRGETYFIEPLKIPDSEAHAVYKYENIENEDEAPKMSGVTQDNWESDEPIKKTLGLIVPPHERKFEKKFIELVVVVDHSMVTKYNNDSTAIRTWIYEMLNTVNEIYLPFNIRVALVGLEFWCNGDLINVTSTADDTLHSFGEWRASDLLNRKRHDHAQLLTNVTLDHSTLGITFVYGMCKSDRSVELILDYSNITFNMAYIIAHEMGHSLGMLHDTKFCTCGAKPCIMFGKESIPPPKEFSSCSYDQYNKYLLKYNPKCILDSPLRKDIASPAVCGNEIWEEGEECDCGSPADCRNPCCDAATCKLKPGAECGNGECCDKCKIRKAGTECRPARDDCDVAEHCTGQSAECPRNEFQR | 0 | 0 | 0 | 0 | Deletion of the Cys-rich domain (positions 491 to 616) or the disintegrin and Cys-rich domains (398-616) abolished all ecarin activity in the presence or absence of APMA | – |
| preproecarin S396, delta III, IV (pDOEC38) (protein) CSIILGSGNVNDYEVVYPQKVTALPKGAVQQPEQKYEDAMQYEFEVKGEPVVLHLEKNKELFSEDYSETHYSSDDREITTNPSVEDHCYYHGRIQNDAESTASISACNGLKGHFKLRGETYFIEPLKIPDSEAHAVYKYENIENEDEAPKMCGVTQDNWESDEPIKKTLGLIVPPHERKFEKKFIELVVVVDHSMVTKYNNDSTAIRTWIYEMLNTVNEIYLPFNIRVALVGLEFWCNGDLINVTSTADDTLHSFGEWRASDLLNRKRHDHAQLLTNVTLDHSTLGITFVYGMCKSDRSVELILDYSNITFNMAYIIAHEMGHSLGMLHDTKFCTCGAKPCIMFGKESIPPPKEFSSCSYDQYNKYLLKYNPKCILDSP | 0 | 0 | 14 | 0 | Deletion of the Cys-rich domain (positions 491 to 616) or the disintegrin and Cys-rich domains (398-616) abolished all ecarin activity in the presence or absence of APMA | – |
| preproecarin S396, S170 delta III, IV (pDOEC40) (protein) CSIILGSGNVNDYEVVYPQKVTALPKGAVQQPEQKYEDAMQYEFEVKGEPVVLHLEKNKELFSEDYSETHYSSDDREITTNPSVEDHCYYHGRIQNDAESTASISACNGLKGHFKLRGETYFIEPLKIPDSEAHAVYKYENIENEDEAPKMSGVTQDNWESDEPIKKTLGLIVPPHERKFEKKFIELVVVVDHSMVTKYNNDSTAIRTWIYEMLNTVNEIYLPFNIRVALVGLEFWCNGDLINVTSTADDTLHSFGEWRASDLLNRKRHDHAQLLTNVTLDHSTLGITFVYGMCKSDRSVELILDYSNITFNMAYIIAHEMGHSLGMLHDTKFCTCGAKPCIMFGKESIPPPKEFSSCSYDQYNKYLLKYNPKCILDSP | 50 | 0 | 0 | 0 | Deletion of the Cys-rich domain (positions 491 to 616) or the disintegrin and Cys-rich domains (398-616) abolished all ecarin activity in the presence or absence of APMA | – |
| preproecarin S396, S170, His6 (pDOEC35) (protein) CSIILGSGNVNDYEVVYPQKVTALPKGAVQQPEQKYEDAMQYEFEVKGEPVVLHLEKNKELFSEDYSETHYSSDDREITTNPSVEDHCYYHGRIQNDAESTASISACNGLKGHFKLRGETYFIEPLKIPDSEAHAVYKYENIENEDEAPKMSGVTQDNWESDEPIKKTLGLIVPPHERKFEKKFIELVVVVDHSMVTKYNNDSTAIRTWIYEMLNTVNEIYLPFNIRVALVGLEFWCNGDLINVTSTADDTLHSFGEWRASDLLNRKRHDHAQLLTNVTLDHSTLGITFVYGMCKSDRSVELILDYSNITFNMAYIIAHEMGHSLGMLHDTKFCTCGAKPCIMFGKESIPPPKEFSSCSYDQYNKYLLKYNPKCILDSPLRKDIASPAVCGNEIWEEGEECDCGSPADCRNPCCDAATCKLKPGAECGNGECCDKCKIRKAGTECRPARDDCDVAEHCTGQSAECPRNEFQRNGQPCLNNSGYCYNGDCPIMLNQCIALFSPSATVAQDSCFQRNLQGSYYGYCTKEIGYYGKRFPCAPQDVKCGRLYCLDNSFKKNMRCKNDYSYADENKGIVEPGTKCEDGKVCINRKCVDVNTAYHHHHHH | 7,526 | 12,127 | 14,850 | 20,524 | Alteration of position 170 to serine resulted in constituitive activation of proecarin, which was partially inhibited by the addition of APMA | – |
| preproecarin P396, His6 (pDOEC34) (protein) CSIILGSGNVNDYEVVYPQKVTALPKGAVQQPEQKYEDAMQYEFEVKGEPVVLHLEKNKELFSEDYSETHYSSDDREITTNPSVEDHCYYHGRIQNDAESTASISACNGLKGHFKLRGETYFIEPLKIPDSEAHAVYKYENIENEDEAPKMCGVTQDNWESDEPIKKTLGLIVPPHERKFEKKFIELVVVVDHSMVTKYNNDSTAIRTWIYEMLNTVNEIYLPFNIRVALVGLEFWCNGDLINVTSTADDTLHSFGEWRASDLLNRKRHDHAQLLTNVTLDHSTLGITFVYGMCKSDRSVELILDYSNITFNMAYIIAHEMGHSLGMLHDTKFCTCGAKPCIMFGKESIPPPKEFSSCSYDQYNKYLLKYNPKCILDPPLRKDIASPAVCGNEIWEEGEECDCGSPADCRNPCCDAATCKLKPGAECGNGECCDKCKIRKAGTECRPARDDCDVAEHCTGQSAECPRNEFQRNGQPCLNNSGYCYNGDCPIMLNQCIALFSPSATVAQDSCFQRNLQGSYYGYCTKEIGYYGKRFPCAPQDVKCGRLYCLDNSFKKNMRCKNDYSYADENKGIVEPGTKCEDGKVCINRKCVDVNTAYHHHHHH | 32 | 36 | 0 | 43 | Proecarin having the sequence disclosed in Nishida et al. (supra) had no activity in the presence or absence of APMA | – |
| preproecarin S396, His6 (pDOEC30) (protein) CSIILGSGNVNDYEVVYPQKVTALPKGAVQQPEQKYEDAMQYEFEVKGEPVVLHLEKNKELFSEDYSETHYSSDDREITTNPSVEDHCYYHGRIQNDAESTASISACNGLKGHFKLRGETYFIEPLKIPDSEAHAVYKYENIENEDEAPKMCGVTQDNWESDEPIKKTLGLIVPPHERKFEKKFIELVVVVDHSMVTKYNNDSTAIRTWIYEMLNTVNEIYLPFNIRVALVGLEFWCNGDLINVTSTADDTLHSFGEWRASDLLNRKRHDHAQLLTNVTLDHSTLGITFVYGMCKSDRSVELILDYSNITFNMAYIIAHEMGHSLGMLHDTKFCTCGAKPCIMFGKESIPPPKEFSSCSYDQYNKYLLKYNPKCILDSPLRKDIASPAVCGNEIWEEGEECDCGSPADCRNPCCDAATCKLKPGAECGNGECCDKCKIRKAGTECRPARDDCDVAEHCTGQSAECPRNEFQRNGQPCLNNSGYCYNGDCPIMLNQCIALFSPSATVAQDSCFQRNLQGSYYGYCTKEIGYYGKRFPCAPQDVKCGRLYCLDNSFKKNMRCKNDYSYADENKGIVEPGTKCEDGKVCINRKCVDVNTAYHHHHHH | 74,077 | 20,079 | 164,602 | 28,372 | Proecarin having a serine at position 396 was active in the absence of APMA, and the amount of activity increased several fold by pretreatment with APMA | essentially complete (greater than 95%) |
